Legend:
His6-FNR D154A = His6-FNR D154A (Escherichia coli, UniProt P0A9E5 1-250, D154A); assay: EMSA; two retarded bands; EMSA: 20 mM Tris-HCl pH 8.0, 50 mM NaCl, 1 mM EDTA, 1 mM beta-mercaptoethanol, 10% glycerol, 37 C 30 min; 6% polyacrylamide gel in ice bath; 0.2 mM cAMP for CRP; conditions: protein: recombinant; tags: His6 (pET28a); chain copies: 2; blunt
His6-CRP = His6-CRP (Escherichia coli, UniProt P0ACJ8 1-210); assay: EMSA; 0.2 mM cAMP; EMSA: 20 mM Tris-HCl pH 8.0, 50 mM NaCl, 1 mM EDTA, 1 mM beta-mercaptoethanol, 10% glycerol, 37 C 30 min; 6% polyacrylamide gel in ice bath; 0.2 mM cAMP for CRP; conditions: protein: recombinant; tags: His6 (pET28a); chain copies: 2; blunt

B1: PompW -167 to -36 native (dsDNA)
DNA 1: GAGTTAATATTTGCGTAGCGAAAATATTTAAAAATTGATTTAAATCACATTAACCAGGATTCTCAATGCAACTTCTAAATTAATCCAGATCAATAAAGGGTGAATTATCATATGTAATGTGATCTATGTAGG
DNA 2: CCTACATAGATCACATTACATATGATAATTCACCCTTTATTGATCTGGATTAATTTAGAAGTTGCATTGAGAATCCTGGTTAATGTGATTTAAATCAATTTTTAAATATTTTCGCTACGCAAATATTAACTC
B1: binds (His6-FNR D154A).

B2: PompW -120 to -3 native (dsDNA)
DNA 1: CATTAACCAGGATTCTCAATGCAACTTCTAAATTAATCCAGATCAATAAAGGGTGAATTATCATATGTAATGTGATCTATGTAGGATCATTTGTTACTCCAATGTAGGTATATTCGTC
DNA 2: GACGAATATACCTACATTGGAGTAACAAATGATCCTACATAGATCACATTACATATGATAATTCACCCTTTATTGATCTGGATTAATTTAGAAGTTGCATTGAGAATCCTGGTTAATG
B2: binds (His6-CRP).

B3: PompW m-42.5 (dsDNA)
DNA 1: CATTAACCAGGATTCTCAATGCAACTTCTAAATTAATCCAGATCAATAAAGGGTGAATTATCATATGTAATCTATGTAGGATCATTTGTTACTCCAATGTAGGTATATTCGTC
DNA 2: GACGAATATACCTACATTGGAGTAACAAATGATCCTACATAGATTACATATGATAATTCACCCTTTATTGATCTGGATTAATTTAGAAGTTGCATTGAGAATCCTGGTTAATG
B3: no binding (His6-CRP).

— publication PMC4886647, “Transcriptional Regulation of the Outer Membrane Porin Gene ompW Reveals its Physiological Role during the Transition from the Aerobic to the Anaerobic Lifestyle of Escherichia coli”
